Assay results reported in paper PMC3565045.

Molecular target: Cryptococcus neoformans acetate kinase (Cryptococcus neoformans)
Test: crystal structure

- stoichiometry N: 2
Substance: Cryptococcus neoformans acetate kinase (enzyme)
